Target: tif1b_human TRIM28 (UniProt Q13263)
Sequence (Q13263 whole entry): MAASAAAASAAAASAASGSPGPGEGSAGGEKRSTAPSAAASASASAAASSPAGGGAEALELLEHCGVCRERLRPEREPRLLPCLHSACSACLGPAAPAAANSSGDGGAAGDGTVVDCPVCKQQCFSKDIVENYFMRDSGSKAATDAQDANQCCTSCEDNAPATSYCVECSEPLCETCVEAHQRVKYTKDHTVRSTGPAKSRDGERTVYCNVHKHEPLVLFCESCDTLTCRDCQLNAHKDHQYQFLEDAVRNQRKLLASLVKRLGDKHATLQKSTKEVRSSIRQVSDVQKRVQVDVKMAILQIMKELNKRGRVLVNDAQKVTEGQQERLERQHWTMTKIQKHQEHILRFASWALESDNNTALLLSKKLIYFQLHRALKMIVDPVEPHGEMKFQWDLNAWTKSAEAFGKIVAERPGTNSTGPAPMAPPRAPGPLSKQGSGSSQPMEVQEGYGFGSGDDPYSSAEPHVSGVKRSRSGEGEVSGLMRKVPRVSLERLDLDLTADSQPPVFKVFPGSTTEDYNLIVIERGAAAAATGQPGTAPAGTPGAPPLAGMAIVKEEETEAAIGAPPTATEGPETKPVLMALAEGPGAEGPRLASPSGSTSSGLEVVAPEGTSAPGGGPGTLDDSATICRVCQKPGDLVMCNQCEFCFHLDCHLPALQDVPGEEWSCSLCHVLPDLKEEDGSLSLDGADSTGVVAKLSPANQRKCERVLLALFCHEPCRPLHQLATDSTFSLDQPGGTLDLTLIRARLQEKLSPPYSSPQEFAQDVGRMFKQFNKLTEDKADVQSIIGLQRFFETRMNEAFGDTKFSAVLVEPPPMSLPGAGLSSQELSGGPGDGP

effect of a mutation on the interaction	Substance
decreasing interaction	Zinc finger protein 350 (Homo sapiens), Q9GZX5 V13A
decreasing interaction	Zinc finger protein 350 (Homo sapiens), Q9GZX5 D12A
